Literature values, collected in publication PMC12112028.
Where two headings read alike, the source gives them in different places.

How the values were obtained:
KISS1R (Homo sapiens) [1] = target: KISS1R (Homo sapiens) (UniProt Q969F8)
KISS1R (Homo sapiens) [2] = target: KISS1R (Homo sapiens) (UniProt Q969F8); remark: listed apart in the source
[3] = target: KISS1R (Rattus norvegicus) (UniProt Q924U1)
[4] = target: KISS1R (Rattus norvegicus) (UniProt Q924U1); remark: listed apart in the source
[5] = target: KISS1R (Rattus norvegicus) (UniProt Q924U1); test: competitive binding assay
KISS1R (Homo sapiens) [6] = target: KISS1R (Homo sapiens) (UniProt Q969F8); remark: listed apart in the source
KISS1R (Homo sapiens) [7] = target: KISS1R (Homo sapiens) (UniProt Q969F8); test: competitive binding assay

UniProt Q969F8, sequence (Q969F8 whole entry): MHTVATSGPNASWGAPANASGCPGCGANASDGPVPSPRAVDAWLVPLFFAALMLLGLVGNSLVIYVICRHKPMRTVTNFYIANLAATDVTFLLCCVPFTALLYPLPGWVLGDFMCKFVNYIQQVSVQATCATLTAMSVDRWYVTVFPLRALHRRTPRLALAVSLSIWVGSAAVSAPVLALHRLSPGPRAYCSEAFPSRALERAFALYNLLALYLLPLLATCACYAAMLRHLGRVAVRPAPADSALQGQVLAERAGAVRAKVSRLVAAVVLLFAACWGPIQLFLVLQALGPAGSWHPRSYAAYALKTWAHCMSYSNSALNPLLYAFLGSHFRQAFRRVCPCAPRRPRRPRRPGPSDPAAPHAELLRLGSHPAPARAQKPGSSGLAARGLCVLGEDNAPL
UniProt Q924U1, sequence (Q924U1 whole entry): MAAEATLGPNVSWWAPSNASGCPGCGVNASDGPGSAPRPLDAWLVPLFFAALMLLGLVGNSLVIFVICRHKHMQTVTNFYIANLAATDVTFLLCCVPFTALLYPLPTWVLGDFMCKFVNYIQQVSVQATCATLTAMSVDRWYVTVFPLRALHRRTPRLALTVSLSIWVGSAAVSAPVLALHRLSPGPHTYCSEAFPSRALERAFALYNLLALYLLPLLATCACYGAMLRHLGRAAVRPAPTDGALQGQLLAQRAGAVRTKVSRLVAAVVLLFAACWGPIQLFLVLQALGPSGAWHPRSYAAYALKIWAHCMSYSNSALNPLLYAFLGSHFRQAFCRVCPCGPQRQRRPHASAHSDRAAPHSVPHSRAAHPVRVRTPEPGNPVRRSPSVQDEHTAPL

Substance	Kd (KISS1R (Homo sapiens) [1]) [nM]	Ki (KISS1R (Homo sapiens) [2]) [nM]	Kd [3] [nM]	Ki [4] [nM]	Ki [5] [nM]	Ki (KISS1R (Homo sapiens) [6]) [nM]	Ki (KISS1R (Homo sapiens) [7]) [nM]
KP-10 (from UniProt Q15726)	1.9	2.33	1	1.59	–	–	–
KP-13 (from UniProt Q15726)	–	–	–	–	2.08	4.23	–
KP-14 (from UniProt Q15726)	–	–	–	–	2.04	–	1.65
KP-54 (from UniProt Q15726)	–	–	–	–	1.81	–	1.45
